Laboratory results: publication PMC12065894

Assays:
[1] = biological target: dasTMPRSS2 (active TMPRSS2 ectodomain with DDDDK zymogen activation motif) (human) (UniProt O15393)
[2] = biological target: dasTMPRSS2 (active TMPRSS2 ectodomain with DDDDK zymogen activation motif) (human) (UniProt O15393); remark: listed apart in the source
[3] = biological target: dasTMPRSS11D (active, autocleaved TMPRSS11D with DDDDK zymogen activation motif) (human) (UniProt O60235)
Sequence of dasTMPRSS11D (active, autocleaved TMPRSS11D with DDDDK zymogen activation motif) (human) (O60235 other isoform, or with tags, fused parts or gaps L182D | S183D | E184D | Q185D | R186K, chain 1 of 2): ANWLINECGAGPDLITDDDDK
Sequence of dasTMPRSS11D (active, autocleaved TMPRSS11D with DDDDK zymogen activation motif) (human) (O60235 187-418, chain 2 of 2): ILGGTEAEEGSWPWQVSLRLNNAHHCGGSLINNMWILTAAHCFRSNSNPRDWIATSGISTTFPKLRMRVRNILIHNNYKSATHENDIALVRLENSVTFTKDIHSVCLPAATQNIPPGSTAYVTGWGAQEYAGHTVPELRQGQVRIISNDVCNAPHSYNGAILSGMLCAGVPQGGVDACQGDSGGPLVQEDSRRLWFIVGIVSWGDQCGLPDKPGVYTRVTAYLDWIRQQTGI

Sequence of dasTMPRSS2 (active TMPRSS2 ectodomain with DDDDK zymogen activation motif) (human) (O15393 other isoform, or with tags, fused parts or gaps, chain 1 of 2): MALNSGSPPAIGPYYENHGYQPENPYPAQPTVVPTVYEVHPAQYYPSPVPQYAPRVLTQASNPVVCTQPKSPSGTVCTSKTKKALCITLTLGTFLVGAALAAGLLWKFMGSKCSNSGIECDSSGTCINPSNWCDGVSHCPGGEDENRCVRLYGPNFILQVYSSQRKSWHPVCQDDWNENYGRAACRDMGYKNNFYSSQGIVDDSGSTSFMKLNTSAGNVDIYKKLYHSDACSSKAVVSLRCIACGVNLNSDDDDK
Sequence of dasTMPRSS2 (active TMPRSS2 ectodomain with DDDDK zymogen activation motif) (human) (O15393 256-492, chain 2 of 2): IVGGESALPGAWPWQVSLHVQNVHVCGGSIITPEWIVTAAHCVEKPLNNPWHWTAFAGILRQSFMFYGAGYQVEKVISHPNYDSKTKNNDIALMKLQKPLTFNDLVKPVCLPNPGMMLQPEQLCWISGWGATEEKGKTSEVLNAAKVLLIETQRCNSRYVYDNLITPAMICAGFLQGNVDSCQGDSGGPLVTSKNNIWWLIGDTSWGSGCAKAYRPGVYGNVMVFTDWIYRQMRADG

Substance	IC50 of inhibition of dasTMPRSS2 (1.5 nM) peptidase activity on Boc-QAR-AMC (100 µM), 10 min pre-incubation [1] [nM]	IC50 of inhibition of dasTMPRSS2 (1.5 nM) peptidase activity on Boc-QAR-AMC (100 µM) [2] [nM]	IC50 of inhibition of dasTMPRSS11D (15 nM) peptidase activity on Boc-QAR-AMC (100 µM) [3] [nM]
Peptidomimetic 1, Ac-Glu-Gln-Arg-kbt (peptide)	2.2		
Peptidomimetic 2, Ac-Gln-Ser-Arg-kbt (peptide)	2.1		
Peptidomimetic 3, Ac-Glu-Glu-Arg-kbt (peptide)		3.2	7.1
Peptidomimetic 4, Ac-Glu-D-Glu-Arg-kbt (peptide)		42	111
Peptidomimetic 5, Ac-Glu-Orn-Arg-kbt (peptide)		6.2	2100
